{
  "source": "patent US10456465B2",
  "about": "“Compositions, kits, and methods for the diagnosis prognosis, monitoring, treatment and modulation of post-transplant lymphoproliferative disorders and hypoxia associated angiogenesis disorders using galectin-1” (Dana-Farber Cancer Institute, Inc., priority 2009, dated 2019)",
  "key": {"VEGFR2": {"biological_target": "T1, VEGFR2 (Homo sapiens, UniProt P35968)", "T1 construct": "co-immunoprecipitation results followed by immunoblot analysis of HUVEC lysates; endogenous in cells; host or cells: primary HUVEC", "T1 sequence (P35968 20-1356)": "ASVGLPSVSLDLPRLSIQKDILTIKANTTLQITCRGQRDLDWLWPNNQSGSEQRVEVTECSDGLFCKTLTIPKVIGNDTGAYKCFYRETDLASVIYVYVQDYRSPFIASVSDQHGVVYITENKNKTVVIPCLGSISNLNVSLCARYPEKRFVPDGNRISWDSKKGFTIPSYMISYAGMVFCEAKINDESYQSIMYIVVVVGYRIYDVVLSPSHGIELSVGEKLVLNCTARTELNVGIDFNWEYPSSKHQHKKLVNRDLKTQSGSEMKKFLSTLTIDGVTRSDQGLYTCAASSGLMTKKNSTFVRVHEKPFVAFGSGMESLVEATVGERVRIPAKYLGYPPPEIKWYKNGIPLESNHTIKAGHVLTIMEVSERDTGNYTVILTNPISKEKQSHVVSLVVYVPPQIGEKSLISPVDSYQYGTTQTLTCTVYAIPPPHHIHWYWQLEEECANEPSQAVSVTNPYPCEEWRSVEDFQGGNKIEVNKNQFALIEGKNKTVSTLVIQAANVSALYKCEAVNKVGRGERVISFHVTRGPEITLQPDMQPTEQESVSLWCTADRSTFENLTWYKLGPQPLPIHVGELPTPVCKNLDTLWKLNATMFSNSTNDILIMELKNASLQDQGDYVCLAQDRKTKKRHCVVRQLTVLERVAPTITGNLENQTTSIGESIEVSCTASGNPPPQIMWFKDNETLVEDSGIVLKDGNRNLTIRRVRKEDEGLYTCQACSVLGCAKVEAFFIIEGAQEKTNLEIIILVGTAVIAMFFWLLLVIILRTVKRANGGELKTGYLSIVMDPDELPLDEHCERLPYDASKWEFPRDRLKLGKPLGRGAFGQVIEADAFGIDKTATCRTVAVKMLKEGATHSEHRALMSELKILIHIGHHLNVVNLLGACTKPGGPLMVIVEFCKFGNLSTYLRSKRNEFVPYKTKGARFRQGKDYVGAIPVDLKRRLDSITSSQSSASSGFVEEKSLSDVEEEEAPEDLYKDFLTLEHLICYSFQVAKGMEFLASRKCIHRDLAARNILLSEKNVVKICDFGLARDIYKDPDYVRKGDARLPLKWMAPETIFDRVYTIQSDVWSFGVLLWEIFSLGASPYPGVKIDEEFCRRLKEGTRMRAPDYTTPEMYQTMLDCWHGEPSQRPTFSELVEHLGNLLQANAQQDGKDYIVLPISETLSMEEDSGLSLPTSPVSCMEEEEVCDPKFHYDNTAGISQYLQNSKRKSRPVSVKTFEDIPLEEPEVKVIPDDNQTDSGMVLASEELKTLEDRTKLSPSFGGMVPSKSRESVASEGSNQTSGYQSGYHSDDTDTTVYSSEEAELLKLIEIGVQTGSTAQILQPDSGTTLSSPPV", "T1 sequence (P09382 2-135 partner limits assumed)": "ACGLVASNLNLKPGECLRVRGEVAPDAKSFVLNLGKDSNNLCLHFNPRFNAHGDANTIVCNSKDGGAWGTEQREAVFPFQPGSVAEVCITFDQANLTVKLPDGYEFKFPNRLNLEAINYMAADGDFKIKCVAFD", "test": "Co-immunoprecipitation of Gal1 with VEGFR2 in HUVEC lysates", "assay_type": "binding", "settings": "lysates of human ECs treated with Gal1", "experimental": "Array (Cell Signaling) following manufacturer's directions. For co-immunoprecipitation, 500 μg cell lysates were incubated with 2 μg of anti-VEGFR2 (55B11; Cell Signaling) or anti-NRP-1 (C-19; Santa Cruz Biotechnol) antibodies. The immunocomplexes were captured with protein G PLUS-Agarose (Santa Cruz Biotechnol) and processed for immunoblot analysis as described in Ilarregui et al. (2009) Nat Immunol 10, 981-991. Equal amounts of protein were resolved by SDS-PAGE, blotted onto nitrocellulose membranes (GE Healthcare) and probed with anti-IκB-α (C21), anti-Erk1/2 (C14), anti-phospho-Erk1/2 (E4) or anti-actin (I-19) (all from Santa Cruz Biotechnol) or anti-Akt (9272), anti-phospho-Akt (9271S), anti-VEGFR2 (55B11), anti-phospho-VEGFR2 (19A10) (all from Cell Signaling) or anti-HIF-1α (mgc3; ABR BioReagent) antibodies or a rabbit anti-Gal1 IgG (1.5 μg/ml) obtained as described in Ilarregui et al. (2009) Nat Immunol 10, 981-991."}, "HUVEC": {"tested_on": "HUVEC", "test": "ELISA of VEGF secretion by HUVEC", "assay_type": "cell-based, human", "settings": "HUVEC incubated with Gal1", "experimental": "(§1) Mouse IFN-γ and IL-10 ELISA sets were from BD Biosciences and mouse IL-17 kit was from R&D. Human soluble VEGF was assessed by ELISA (DY293B; R&D). Soluble Gal1 was determined using an in-house ELISA. Briefly, high binding 96-well microplates (Corning Costar) were coated with capture antibody (2 μg/ml purified rabbit anti-Gal1 polyclonal IgG) in 0.1 M sodium carbonate pH 9.5. After incubation for 18 hours at 4° C., wells were rinsed three times with wash buffer (0.05% Tween-20 in PBS) and incubated for 1 h at RT with blocking solution (2% BSA in PBS). Samples and standards (100 μl) were diluted in 1% BSA and incubated for 18 hours at 4° C. Plates were then washed and incubated with 100 ng/ml biotinylated detection antibody (purified rabbit anti-Gal1 polyclonal IgG) for 1 hour at RT. Plates were rinsed three times before adding horseradish peroxidase-labeled streptavidin (0.33 μg/ml; Sigma) for 30 min at RT. After washing, 100 μl of TMB solution (0.1 mg/ml tetramethylbenzidine and 0.06% H2O2 in citrate-phosphate buffer pH 5) was added to the plates. The reaction was stopped by adding 4N H2SO4. Optical densities were determined at 450 nm in a Multiskan MS microplate reader (Thermo Electron Corporation). A standard curve ranging from 2.5 to 160 ng/ml recombinant Gal1 was run in parallel."}, "B16 tumors": {"tested_on": "B16 tumors", "test": "Anti-tumor immune response in B16 tumor-bearing mice (TDLN restimulation, FACS)", "assay_type": "in vivo, mouse", "experimental": "Wild-type KS cells or shRNA clones (5×10^6 cells) were injected subcutaneously into 6- to 8-week old nude mice. Wild-type B16 cells or shRNA clones (2×10^5 cells) were injected into 6- to 8-week old B6 or B6/Rag^−/− mice and tumor development was monitored as described in Rubinstein et al. (2004) Cancer Cell 5, 241-251. Treatments with 8F4F8G7 mAb or control isotype (2.5, 7.5 or 15 mg/kg; i.p. injections every three days) were initiated when tumors reached 100 mm^3. Mice were sacrificed when tumors reached a volume greater than 2 cm^3. At 2 weeks after tumor challenge, lymph node cells (5×10^5 cells/well) were restimulated for 72 h with 1×10^4 irradiated (4,000 rads) B16 cells and were analyzed for proliferation and cytokine production. For adoptive transfer, splenic T cells (5×10^6) from tumor-bearing mice were labeled with CFSE (Molecular Probes) and injected through the tail vein into tumor-bearing recipient mice treated with 8F4F8G7 or control mAb. In related studies, fluorescent beads (3 μm; BD Biosciences), rather than splenic T cells, were injected into tumor-bearing animals treated with 8F4F8G7 or control antibody. CFSE^+ cells or PerCP-labeled beads were analyzed after 24 h or 15 min respectively by flow cytometry in tumor parenchyma and spleen.\nFor intracellular cytokine staining, TLDN or tumor-infiltrating lymphocytes were made permeable with Perm2 solution (BD Biosciences) and were labeled with fluorescent-labeled monoclonal anti-IFN-γ (XMG1.2; BD Biosciences), anti-IL-17 (TC11-18H10; BD Biosciences), anti-IL-10 (JESS-16E3; eBioscience), anti-CD4 (GK1.5; BD Biosciences), anti-CD8 (H35-17.2; eBioscience) antibodies. Treg cells were determined by using the mouse Treg staining kit (FJK-16s, eBioscience). Cells were analyzed on a FACSAria (BD Biosciences) using a FlowJO software.\nas §1"}, "[1]": {"biological_target": "recombinant human Gal1 (rGal1) (Homo sapiens, UniProt P09382)", "sequence (P09382 whole entry)": "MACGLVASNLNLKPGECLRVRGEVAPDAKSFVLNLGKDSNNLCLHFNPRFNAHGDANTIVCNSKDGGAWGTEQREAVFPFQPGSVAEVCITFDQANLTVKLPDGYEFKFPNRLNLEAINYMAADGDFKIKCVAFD", "test": "Anti-Gal1 mAb neutralization of rGal1-induced apoptosis of activated T cells", "assay_type": "cell-based", "settings": "10 μM rGal1 pre-incubated with 5 μM mAb; 16 h; Annexin V-FITC/PI", "experimental": "Normal T cells were purified and activated with a combination of αCD3 (0.1 μg/ml) and αCD28 (0.5 μg/ml) as previously described (Juszczynski et al. (2007) Proc Natl Acad Sci USA 104:13134-9). Ten μM recombinant human Gal1 (rGal1) was pre-incubated with 5 μM anti-Gal1 mAb 8F4F8G7 or isotype control IgG2b2, (Rockland Immunochemicals Inc., Boyertown, Pa.) or medium alone at 37° C. for 30 min. Thereafter, rGal1+/− antibody was added to in vitro αCD3 and αCD28 activated T cells. After 16 h treatment, cells were harvested for apoptosis analysis using Annexin V-FITC and PI (BD Biosciences, San Jose, Calif.) flow cytometry as previously described (Juszczynski et al. (2007) Proc Natl Acad Sci USA 104:13134-9)."}, "[2]": {"settings": "restimulated ex vivo with B16 cells"}},
  "data": [
    {"molecule": "rGal1: recombinant human galectin-1", "values": [
      {"measurement": "association with VEGFR2", "setting": "VEGFR2", "value": "associated specifically"},
      {"measurement": "VEGF secretion", "setting": "HUVEC", "value": "lack of effects"}
    ]},
    {"molecule": "anti-Gal1 monoclonal antibody 8F4F8G7 (antibody, V domains shown, Murine hybridoma mAb (deposit PTA-10535), lambda light chain; also called 14-19 8F4-F8-G7; clone 8F4.8F.67) VH: EVQLQQSVAEFVRPGASVRLSCTASGFNIKNTYIHWVRQRPEQGLEWIGKIDPANGNTKYVPEFQGKATMTADTSSNTVYLHLSSLTSEDTAIYYCVDGYYGWYFAVWGTGTTVTVSS VL: QAVVTQESALTTSPGETVTLTCRSSTGAVTTSNYANWVQEKPDHLFTGLIGATNNRAPGVPARFSGSLIGDKAVLTITGAQTEDEAIYFCALWYRNHFIFGSGTKVTVL", "values": [
      {"measurement": "B16-specific IL-10 production", "setting": "B16 tumors; mouse, in vivo", "value": "blunted"},
      {"measurement": "proliferation of tumor-draining lymph node cells", "setting": "B16 tumors; [2]", "value": "stimulated"},
      {"measurement": "synthesis and secretion of IFN-γ by tumor-draining lymph node cells", "setting": "B16 tumors; [2]", "value": "stimulated"},
      {"measurement": "synthesis and secretion of IL-17 by tumor-draining lymph node cells", "setting": "B16 tumors; [2]", "value": "stimulated"},
      {"measurement": "frequency of CD4+CD25+FoxP3+ Treg cells in TDLN", "setting": "B16 tumors; vs isotype control", "value": "decline"},
      {"measurement": "number of tumor-infiltrating IFN-γ-producing CD8+ T cells", "setting": "B16 tumors; vs isotype-treated mice", "value": "dramatic increase"},
      {"measurement": "rGal1-induced apoptosis of αCD3/αCD28-activated T cells", "setting": "[1]", "value": "almost completely inhibited"}
    ]}
  ]
}
